{
  "source": "patent US8409583B2",
  "about": "“Engineered versions of CgtB (β-1,3 galactosyltransferase) enzymes, with enhanced enzymatic properties” (National Research Council of Canada, priority 2007, dated 2013)",
  "molecules": {"B1": {"name": "CJL-20: Full length CgtB from C. jejuni NCTC 11168 fused to MalE at the N-terminus (protein)", "chain": "MSQISIILPTYNVEKYIARALESCINQTFKDIEIIVVDDCGNDKSIDIAKEYASKDDRIKIIHNEENLKLLRARYEGAKVATSPYIMFLDSDDYLELNACEECIKILDMGGGGKIDLLCFEAFITNAKKSIKKLNIKQGKYNNKEFTMQILKTKNPFWTMWAKIIKKDIYLKAFNMLNLKKEIKINMAEDALLYYPLTILSNEIFYLTQPLYTQHVNSNSITNNINSLEANIQEHKIVLNVLKSIKNKKTPLYFLIIYLLKIQLLKYEQNFNKRNINLIYYKINILYQKYQFKWKKFLYNLIP", "modifications": "left off: large carriers", "notes": "Full length CgtB from C. jejuni NCTC 11168 fused to MalE at the N-terminus"}, "B2": {"name": "CJL-10: Full length CgtB β-1,3-galactosyltransferase from C. jejuni OH4384 fused to E. coli MalE (maltose binding protein) at the N-terminus (protein)", "chain": "MFKISIILPTYNVEQYIARAIESCINQTFKDIEIIVVDDCGNDNSINIAKEYSKKDKRIKIIHNEKNLGLLRARYEGVKVANSPYIMFLDPDDYLELNACEECIKILDEQDEVDLVFFNAIVESNVISYKKFDFNSGFYSKKEFVKKIIAKKNLYWTMWGKLIRKKLYLEAFASLRLEKDVKINMAEDVLLYYPMLSQAQKIAYMNCNLYHYVPNNNSICNTKNEVLVKNNIQELQLVLNYLRQNYILNKYCSVLYVLIKYLLYIQIYKIKRTKLMVTLLAKINILTLKILFKYKKFLKQC", "modifications": "left off: large carriers"}},
  "assay_type_in_all_cases": "biochemical",
  "key": {"[1]": {"experiment": "CgtB activity assay (capillary electrophoresis), acceptor GM2-FCHASE", "conditions": "for Relative activity (%): GM2-FCHASE at 0.5 mM, reference (100%) GM2-FCHASE for CgtBOH4384 and CgtB11168, GA2-FCHASE for CgtBHS:10, average of three experiments; for Specific Activity (mU/mg) on a given FCHASE-labeled acceptor: purified enzyme, 1 mM GM2-FCHASE", "description": "(§1) The oligosaccharide acceptors and the interferon alpha 2b (IFNα2b) peptide (VGVTETP, corresponding to positions 103-109 of the mature IFNα2b protein) were labeled with FCHASE as previously described (Wakarchuk, W. et al., J Biol. Chem. 271:19166-19173 (1996)). IFNα2b-FCHASE was purified by reverse-phase chromatography using a PRP-1 column (10×250 mm, Hamilton Company, Reno, Nev.) in 10 mM ammonium acetate pH 5.5 with a gradient of acetonitrile (0-100% over 4 column volumes). CgtB activity assays were done in cell lysates or using purified enzyme in 50 mM MES pH 6.0, 0.5 mM of FCHASE-acceptor (unless otherwise indicated), 10 mM MnCl2, 10 mM DTT, 1 mM UDP-Gal at 37° C. from 5 to 30 minutes. All reactions were stopped by addition of 10 μL of 50% acetonitrile, 10 mM EDTA and 1% SDS and were diluted with H2O to obtain 10-15 μM final concentration of the FCHASE-labeled compounds. The samples were analyzed by capillary electrophoresis as described previously (Wakarchuk, W. W. et al., Methods Mol. Biol. 213:263-274 (2003)) except that a P/ACE MDQ Capillary Electrophoresis System equipped with a Laser module 488 (Beckman Coulter, Calif.) was used. Quantitation of the reactions was performed by integration of the trace peaks using the MDQ 32 Karat software."}, "[2]": {"experiment": "CgtB activity assay (capillary electrophoresis), acceptor GA2-FCHASE", "conditions": "GA2-FCHASE at 0.5 mM; reference (100%) GM2-FCHASE for CgtBOH4384 and CgtB11168, GA2-FCHASE for CgtBHS:10; average of two experiments", "description": "as §1"}, "[3]": {"experiment": "CgtB activity assay (capillary electrophoresis), acceptor lyso-GM2-FCHASE", "conditions": "lysoGM2-FCHASE at 0.5 mM; reference (100%) GM2-FCHASE for CgtBOH4384 and CgtB11168, GA2-FCHASE for CgtBHS:10; average of three experiments", "description": "as §1"}, "[4]": {"experiment": "CgtB activity assay (capillary electrophoresis), acceptor GalNAcβ-FCHASE", "conditions": "for Relative activity (%): GalNAcβ-FCHASE at 0.5 mM, reference (100%) GM2-FCHASE for CgtBOH4384 and CgtB11168, GA2-FCHASE for CgtBHS:10, average of three experiments; for Specific Activity (mU/mg) on a given FCHASE-labeled acceptor: purified enzyme, 3 mM GalNAcβ-FCHASE", "description": "as §1, with “CgtB activity assays were done in cell lysates or using purified enzyme in 50 mM MES pH 6.0, 0.5 mM of FCHASE-acceptor (unless otherwise indicated), 10 mM MnCl2, 10 mM DTT, 1 mM UDP-Gal at 37° C. from 5 to 30 minutes.” left out"}, "[5]": {"experiment": "CgtB activity assay (capillary electrophoresis), acceptor GalNAcα-FCHASE", "conditions": "for Relative activity (%): GalNAcα-FCHASE at 0.5 mM, reference (100%) GM2-FCHASE for CgtBOH4384 and CgtB11168, GA2-FCHASE for CgtBHS:10, average of two experiments; for Specific Activity (mU/mg) on a given FCHASE-labeled acceptor: purified enzyme, 3 mM GalNAcα-FCHASE", "description": "as §1, with “CgtB activity assays were done in cell lysates or using purified enzyme in 50 mM MES pH 6.0, 0.5 mM of FCHASE-acceptor (unless otherwise indicated), 10 mM MnCl2, 10 mM DTT, 1 mM UDP-Gal at 37° C. from 5 to 30 minutes.” left out"}, "[6]": {"system": "IFNα2b[Tn]-FCHASE", "experiment": "CgtB activity assay (capillary electrophoresis), glycopeptide acceptor IFNα2b[Tn]-FCHASE", "conditions": "purified enzyme; 1 mM IFNα2b[Tn]-FCHASE", "description": "as §1\nThe IFNα2b protein was purchased from Cell Sciences (Canton, Mass.). […]"}},
  "data": [
    {"molecule": "B1", "values": [
      {"measurement": "Relative activity (%)", "setting": "[1]", "result": "100^4%"},
      {"measurement": "Specific Activity (mU/mg) on a given FCHASE-labeled acceptor", "setting": "[1]", "result": 27, "unit": "mU/mg"},
      {"measurement": "Relative activity (%)", "setting": "[2]", "result": "8.8^3%"},
      {"measurement": "Relative activity (%)", "setting": "[3]", "result": "606.2^4%"},
      {"measurement": "Relative activity (%)", "setting": "[4]", "result": "50.5^4%"},
      {"measurement": "Specific Activity (mU/mg) on a given FCHASE-labeled acceptor", "setting": "[4]", "result": 40.4, "unit": "mU/mg"},
      {"measurement": "Relative activity (%)", "setting": "[5]", "result": "3.0^3%"},
      {"measurement": "Specific Activity (mU/mg) on a given FCHASE-labeled acceptor", "setting": "[5]", "result": 13.6, "unit": "mU/mg"}
    ]},
    {"molecule": "B2", "values": [
      {"measurement": "Specific Activity (mU/mg) on a given FCHASE-labeled acceptor", "setting": "[6]", "result": 83.5, "unit": "mU/mg"},
      {"measurement": "Relative activity (%)", "setting": "[1]", "result": "100^4%"},
      {"measurement": "Specific Activity (mU/mg) on a given FCHASE-labeled acceptor", "setting": "[1]", "result": 210, "unit": "mU/mg"},
      {"measurement": "Relative activity (%)", "setting": "[2]", "result": "29^3%"},
      {"measurement": "Relative activity (%)", "setting": "[3]", "result": "444^4%"},
      {"measurement": "Relative activity (%)", "setting": "[4]", "result": "47.5^4%"},
      {"measurement": "Specific Activity (mU/mg) on a given FCHASE-labeled acceptor", "setting": "[4]", "result": 192, "unit": "mU/mg"},
      {"measurement": "Relative activity (%)", "setting": "[5]", "result": "6.4^3%"},
      {"measurement": "Specific Activity (mU/mg) on a given FCHASE-labeled acceptor", "setting": "[5]", "result": "158^1 mU/mg"}
    ]}
  ]
}
